Patent US20240076391A1 (ONCURIOUS, published 2024)
Changes are numbered by the printed parent chain. Names and notes keep the numbering of the source.

Experiments:
human CCR8 [1] = target: T1, human CCR8 (human, UniProt P51685 1-355); assay: flow cytometry competition with FLAG3-His6 tagged parental VHH-56 on hCCR8 cells
T1 construct: also called hCCR8
Source text: (§1) Multiple His6 tagged VHH variants were thus generated and evaluated by flow cytometry f for their ability to compete for binding to hCCR8 with their FLAG3-His6 tagged parental counterparts. […] Variants that retained binding capacity where selected for further biophysical and chemical stability analysis.

[2] = target: T2, N-terminal deletion human CCR8 (delta 18-3XHA) (human, UniProt P51685 20-355); assay: flow cytometry; an extracellular loop binder is defined in paragraph 224 as binding on hCCR8 cells and on human CCR8 (delta18-3XHA)
T2 construct: N-terminally deleted construct with 3XHA, expressed on transfected HEK293 cells
Source text: VHH clones resulting from the human CCR8 immunization and selection campaign were screened by means of flow cytometry for binding to human CCR8 (SEQ ID NO: 79) on stably transfected HEK293 cells or to HEK293 cells previously transfected with plasmid DNA encoding three different versions of human-mouse chimera CCR8 in which one of the extracellular loops (ECLs) was replaced with the mouse CCR8 counterpart, as well as to an N-terminal deletion human CCR8 (SEQ ID NO: 80, delta 18-3XHA herein after), in comparison to mock-transfected control cells. Comparison of the binding (median fluorescent intensity) signal of a given VHH clone across the seven cell lines enabled classification of said clone as an N-terminal human CCR8 binder (i.e. binding on hCCR8 cells, but not on human CCR8 (delta18-3XHA) or control cells) or as an extracellular loop hCCR8 binder (i.e. binding on hCCR8 cells and on human CCR8 (delta18-3XHA), but not on control cells). Binding comparison across the cell lines expressing human-mouse chimera CCR8 allowed to further classify extracellular hCCR8 binders as either ECL1, ECL2 or ECL3 binders.

human CCR8 [3] = target: T1, human CCR8; assay: flow cytometry, human CCR8 stably expressed in HEK293 cells
human CCR8 [4] = target: T1, human CCR8; assay: competition with VHH-65 for CCR8 binding
human CCR8 [5] = target: T1, human CCR8; assay: flow cytometry competition with FLAG3-His6 tagged parental VHH-74 on hCCR8 cells
Source text: as §1

human CCR8 [6] = target: T1, human CCR8; assay: flow cytometry competition with FLAG3-His6 tagged parental VHH-65 on hCCR8 cells
Source text: as §1

T1 sequence (P51685 whole entry): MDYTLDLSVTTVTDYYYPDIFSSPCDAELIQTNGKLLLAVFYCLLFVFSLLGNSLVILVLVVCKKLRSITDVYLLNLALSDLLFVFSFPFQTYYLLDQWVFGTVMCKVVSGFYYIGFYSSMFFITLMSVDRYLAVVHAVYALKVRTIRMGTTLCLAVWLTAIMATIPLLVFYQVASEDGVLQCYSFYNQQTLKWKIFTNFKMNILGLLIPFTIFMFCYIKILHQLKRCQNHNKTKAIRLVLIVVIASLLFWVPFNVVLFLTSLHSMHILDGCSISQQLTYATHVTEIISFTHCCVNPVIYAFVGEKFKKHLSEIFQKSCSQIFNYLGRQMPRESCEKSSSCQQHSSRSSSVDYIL
T2 sequence (P51685 other isoform, or with tags, fused parts or gaps mutant): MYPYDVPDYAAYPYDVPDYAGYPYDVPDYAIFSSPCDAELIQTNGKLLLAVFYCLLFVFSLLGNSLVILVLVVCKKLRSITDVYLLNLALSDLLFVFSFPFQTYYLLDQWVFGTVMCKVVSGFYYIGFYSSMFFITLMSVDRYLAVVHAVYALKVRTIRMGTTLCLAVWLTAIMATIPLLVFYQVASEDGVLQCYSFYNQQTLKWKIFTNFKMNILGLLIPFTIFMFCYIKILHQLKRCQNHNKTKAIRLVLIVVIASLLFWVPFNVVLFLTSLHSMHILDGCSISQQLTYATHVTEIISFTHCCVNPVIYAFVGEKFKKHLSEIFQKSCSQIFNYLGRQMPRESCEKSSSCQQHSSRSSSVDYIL

B1: VHH-114 (VHH)
VHH: DVQLVESGGGLVQPGGSLRLSCAASRSIYNVLAMGWYRQAPGKERELVAVVWSSGNTNYADSVKGRFTISRDNAKNTVYLQMNSLRPEDTAVYYCYSKSLIGTSRYEIWGQGTLVTVSS
notes: 'V691' is printed, probably V69I; also called VHH-56 E1D, M32L, V691; not shown: C-terminal His6 tag (no FLAG3)
binding result (human CCR8 [1]): binds

B2: VHH-56 (VHH)
VHH: B1 VHH with D1E, L32M, I69V
notes: Monovalent VHH purified from E. coli periplasm by IMAC; PelB signal peptide is removed on export; not shown: C-terminal FLAG3 and His6 tags
binding result [2]: binds | binding result (human CCR8 [3]): binds

B3: VHH-115 (VHH)
VHH: B1 VHH with L32R
notes: 'V691' is printed, probably V69I; also called VHH-56 E1D, M32R, V691; not shown: C-terminal His6 tag (no FLAG3)
binding result (human CCR8 [1]): binds

B4: VHH-74 (VHH)
VHH: EVQLVESGGGLVQPGGSLRLSCAASGSTFSIKSIGWYRQAPGKQRELVADITRGAGINYADSVKGRFTISRDNTKNTMYLQMNSLRPEDTAVYYCNVKTIKRTGGIMTGSKIEYDYWGQGTLVTVSS
notes: Monovalent VHH purified from E. coli periplasm by IMAC; not shown: C-terminal FLAG3 and His6 tags
binding result (human CCR8 [4]): binds

B5: VHH-125 (VHH)
VHH: B4 VHH with E1D, T74A, M78V, M107L
notes: also called VHH-74 E1D, T74A, M78V, M107L; not shown: C-terminal His6 tag (no FLAG3)
binding result (human CCR8 [5]): binds

B6: VHH-65 (VHH)
VHH: EVQLVESGGGLVQPGGSLRLSCAASGRAFSSYNMGWFRQAPGKERDFVATISSSGTNYANSVKGRFTISRDNAKNTVYLQMNSLRPEDTAVYYCNAKTVTRTGGVITGSRIEYDYWGQGTLVTVSS
notes: as for B4
binding result [2]: binds | binding result (human CCR8 [3]): binds

B7: VHH-89 (VHH)
VHH: B6 VHH with E1D, D46E, N60D
notes: also called VHH-65 E1D, D46E, N60D; not shown: C-terminal His6 tag (no FLAG3)
binding result (human CCR8 [6]): binds
